Data: patent US20230212549A1 (3B PHARMACEUTICALS, published 2023)
Numbered stars: 1 amine (or outer) side, 2 acyl side, 3 side chain; on linkers, the order of the positions; unused ones are H or OH. Bridge positions count the residues as written; N and C are the ends. Square brackets hold non-standard residues; d marks the D form. mXylylene = c1cc(C[*:1])cc(C[*:2])c1; αMeF = C[C@](N)(Cc1ccccc1)C(=O)O; 4Pal = N[C@@H](Cc1ccncc1)C(=O)O; 2Thi = N[C@@H](Cc1cccs1)C(=O)O; Aic = NC1(C(=O)O)Cc2ccccc2C1

Experiments:
[1] = target: Recombinant human FAP (R&D systems, #3715-SE) (human, UniProt Q12884 26-760); assay: cell-based or functional assay
[2] = target: T1, fibroblast activation protein (FAP) on FAP-expressing human WI-38 fibroblasts (human, UniProt Q12884 1-760); assay: competitive FACS, WI-38 cells, vs Cy5 tracer m3; A = pIC50 >8.0
T1 construct: also called human FAP

Binder | pIC50 Category (Activity) [1] [pIC50] | pIC50 Category (FACS) [2] [pIC50]
Ac-MCPPTEFCDHFR-NH2 (linker 2-8 via mXylylene; SMILES CSCC[C@H](NC(C)=O)C(=O)N[C@H]1CSCc2cccc(c2)CSC[C@@H](C(=O)N[C@@H](CC(=O)O)C(=O)N[C@@H](Cc2c[nH]cn2)C(=O)N[C@@H](Cc2ccccc2)C(=O)N[C@@H](CCCNC(=N)N)C(N)=O)NC(=O)[C@H](Cc2ccccc2)NC(=O)[C@H](CCC(=O)O)NC(=O)[C@H]([C@@H](C)O)NC(=O)[C@@H]2CCCN2C(=O)[C@@H]2CCCN2C1=O, also called 3BP-3200) [Ac-Met-[Cys(3MeBn)-Pro-Pro-Thr-Glu-Phe-Cys]-Asp-His-Phe-Arg-NH2] | > 8 | > 8
Ac-MCPPTE[2Thi]CDHFRD-NH2 (linker 2-8 via mXylylene; SMILES CSCC[C@H](NC(C)=O)C(=O)N[C@H]1CSCc2cccc(c2)CSC[C@@H](C(=O)N[C@@H](CC(=O)O)C(=O)N[C@@H](Cc2c[nH]cn2)C(=O)N[C@@H](Cc2ccccc2)C(=O)N[C@@H](CCCNC(=N)N)C(=O)N[C@@H](CC(=O)O)C(N)=O)NC(=O)[C@H](Cc2cccs2)NC(=O)[C@H](CCC(=O)O)NC(=O)[C@H]([C@@H](C)O)NC(=O)[C@@H]2CCCN2C(=O)[C@@H]2CCCN2C1=O, also called 3BP-3193) [Ac-Met-[Cys(3MeBn)-Pro-Pro-Thr-Glu-Thi-Cys]-Asp-His-Phe-Arg-Asp-NH2] | > 8 | > 8
Ac-MCPPTEFCDH[αMeF]RD-NH2 (linker 2-8 via mXylylene; SMILES CSCC[C@H](NC(C)=O)C(=O)N[C@H]1CSCc2cccc(c2)CSC[C@@H](C(=O)N[C@@H](CC(=O)O)C(=O)N[C@@H](Cc2c[nH]cn2)C(=O)N[C@@](C)(Cc2ccccc2)C(=O)N[C@@H](CCCNC(=N)N)C(=O)N[C@@H](CC(=O)O)C(N)=O)NC(=O)[C@H](Cc2ccccc2)NC(=O)[C@H](CCC(=O)O)NC(=O)[C@H]([C@@H](C)O)NC(=O)[C@@H]2CCCN2C(=O)[C@@H]2CCCN2C1=O, also called 3BP-3203) [Ac-Met-[Cys(3MeBn)-Pro-Pro-Thr-Glu-Phe-Cys]-Asp-His-Amf-Arg-Asp-NH2] | > 8 | > 8
Ac-MCPPTEFCDH[4Pal]RD-NH2 (linker 2-8 via mXylylene, also called 3BP-3191) [Ac-Met-[Cys(3MeBn)-Pro-Pro-Thr-Glu-Phe-Cys]-Asp-His-Ppa-Arg-Asp-NH2] | > 8 | > 8
Ac-MCPPTEFCDHXRD-NH2 (linker 2-8 via mXylylene; not fully specified (residue 11); printed as Ac-Met-[Cys(3MeBn)-Pro-Pro-Thr-Glu-Phe-Cys]-Asp-His-Mpa-Arg-Asp-NH2, also called 3BP-3192) [Ac-Met-[Cys(3MeBn)-Pro-Pro-Thr-Glu-Phe-Cys]-Asp-His-Mpa-Arg-Asp-NH2] | > 8 | > 8

Now from value to binder:

pIC50 Category (Activity) [1] [pIC50] | pIC50 Category (FACS) [2] [pIC50] | Binder
> 8 | > 8 | Ac-CPPTEFCDHFRD-NH2 (linker 1-7 via mXylylene; SMILES CC(=O)N[C@H]1CSCc2cccc(c2)CSC[C@@H](C(=O)N[C@@H](CC(=O)O)C(=O)N[C@@H](Cc2c[nH]cn2)C(=O)N[C@@H](Cc2ccccc2)C(=O)N[C@@H](CCCNC(=N)N)C(=O)N[C@@H](CC(=O)O)C(N)=O)NC(=O)[C@H](Cc2ccccc2)NC(=O)[C@H](CCC(=O)O)NC(=O)[C@H]([C@@H](C)O)NC(=O)[C@@H]2CCCN2C(=O)[C@@H]2CCCN2C1=O, also called 3BP-3202) [Ac-[Cys(3MeBn)-Pro-Pro-Thr-Glu-Phe-Cys]-Asp-His-Phe-Arg-Asp-NH2]
> 8 | > 8 | Ac-MCPPTEFCDH[Aic]RD-NH2 (linker 2-8 via mXylylene; SMILES CSCC[C@H](NC(C)=O)C(=O)N[C@H]1CSCc2cccc(c2)CSC[C@@H](C(=O)N[C@@H](CC(=O)O)C(=O)N[C@@H](Cc2c[nH]cn2)C(=O)NC2(C(=O)N[C@@H](CCCNC(=N)N)C(=O)N[C@@H](CC(=O)O)C(N)=O)Cc3ccccc3C2)NC(=O)[C@H](Cc2ccccc2)NC(=O)[C@H](CCC(=O)O)NC(=O)[C@H]([C@@H](C)O)NC(=O)[C@@H]2CCCN2C(=O)[C@@H]2CCCN2C1=O, also called 3BP-3190) [Ac-Met-[Cys(3MeBn)-Pro-Pro-Thr-Glu-Phe-Cys]-Asp-His-Aic-Arg-Asp-NH2]
